Target: full-length Measles virus hemagglutinin (H) on transfected HEK293T cells (Measles virus, strain IC323, UniProt Q786F2)
Assay: flow cytometry on cells

Chain of full-length Measles virus hemagglutinin (H) on transfected HEK293T cells (Q786F2 whole entry): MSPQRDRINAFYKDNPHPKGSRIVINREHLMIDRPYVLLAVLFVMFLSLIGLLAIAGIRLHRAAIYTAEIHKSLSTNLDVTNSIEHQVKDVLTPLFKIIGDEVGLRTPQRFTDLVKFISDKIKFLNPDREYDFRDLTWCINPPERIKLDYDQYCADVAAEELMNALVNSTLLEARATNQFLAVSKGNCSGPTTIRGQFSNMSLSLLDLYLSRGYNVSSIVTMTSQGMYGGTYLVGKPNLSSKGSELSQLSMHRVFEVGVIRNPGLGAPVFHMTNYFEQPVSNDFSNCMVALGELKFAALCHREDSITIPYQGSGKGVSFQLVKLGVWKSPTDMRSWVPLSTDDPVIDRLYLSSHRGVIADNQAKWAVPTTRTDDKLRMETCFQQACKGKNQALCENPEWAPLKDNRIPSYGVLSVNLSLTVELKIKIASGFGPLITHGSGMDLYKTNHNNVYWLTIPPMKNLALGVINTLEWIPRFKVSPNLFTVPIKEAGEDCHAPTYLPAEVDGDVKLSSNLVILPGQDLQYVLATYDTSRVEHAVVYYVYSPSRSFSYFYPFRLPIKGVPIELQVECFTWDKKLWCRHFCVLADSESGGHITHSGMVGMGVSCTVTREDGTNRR

B1: human anti-MeV H monoclonal antibody 1C02 (IgG1) (antibody, V domains shown)
VH: EVQLLESGAEVKKPGSSVKVSCKASGGTFSSYGISWVRQAPGQGLEWMGGIIPIFGTANYAQKFRGRVTITADKSTSTAYMELSSLRSEDTAVYYCARERITVAGINYYYGMDVWGQGTTVTVSS
VL: RPVLTQPPSVSGAPGQRVTISCTGSSSNIGAGYDVHWYQQLPGTAPKLLIYGDSNRPSGVPDRFSGSKSGTSASLAITGLQAEDEADYYCQSYDSSLSGVVFGGGTKLTVL
B1: binds.

B2: human anti-MeV H monoclonal antibody 4D08 (IgG1) (antibody, V domains shown)
VH: QMQLVQSGAEVKKPGASVKVSCKASGYTFTSYAMHWVRQAPGQRLEWMGWINAGNGKTEYSQRFQGRVTITRDTSASTVYMELNSLRSEDTAVYFCARDAYDFWSGYGNWGSNYYYFYMDAWGKGTTVTVSS
VL: EIVMTQSPPSLSASVGDRVTITCRASQSINYYLNWYQQKPGKAPKLLIYAASGLQSGVPSRFSGSGSGTDFTLTISSLQPEDLATYYCQQTYSTPVTFGQGTKLEII
B2: binds.

Source: paper PMC13374049 (Cell host & microbe, 2026)
